# Residue numbers refer to the chain shown, from its start.
# T1: PB_(Cdc24)(D833G) (Saccharomyces cerevisiae, UniProt P11433 668-854, D833G)
# T1 construct: also called D833G mutant; source: E. coli BL21DE3, purified (IMAC, optional size exclusion chromatography)
# T1 sequence (looked up): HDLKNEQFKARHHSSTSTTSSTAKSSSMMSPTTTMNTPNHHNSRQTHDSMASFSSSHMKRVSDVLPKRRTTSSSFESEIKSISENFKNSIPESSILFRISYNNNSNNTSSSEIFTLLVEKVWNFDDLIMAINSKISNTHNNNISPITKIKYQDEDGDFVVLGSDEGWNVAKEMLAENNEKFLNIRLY
# T2: PB_(Cdc24) (Saccharomyces cerevisiae, UniProt P11433 668-854)
# T2 construct: also called Cdc24 PB domain; source: E. coli BL21DE3, purified (IMAC, optional size exclusion chromatography)
# T2 sequence (looked up): T1 sequence (looked up) with G166D
# B1: PB_(Bem1)-SNAP (domain or fragment, Saccharomyces cerevisiae, UniProt P29366 431-551, looked up)
# chain: ASQTSNFASTNQDNTLTGEDLKLNKKLSDLSLSGSKQAPAQSTSGLKTTKIKFYYKDDIFALMLKGDTTYKELRSKIAPRIDTDNFKLQTKLFDGSGEEIKTDSQVSNIIQAKLKISVHDI
# modifications: BG-Biotin covalently on the SNAP tag
# notes: Bem1, S. cerevisiae, PB domain, residues 431-551; also called Bem1 PB domain; source: E. coli BL21DE3, purified (IMAC, optional size exclusion chromatography)
# Legend:
# PB_(Cdc24)(D833G) = target: T1, PB_(Cdc24)(D833G); assay: SPR; Biacore X100; PB_(Bem1)-SNAP labelled with BG-Biotin and captured on a CM5 chip coated with anti-biotin antibody; PB_(Cdc24) as analyte; HBSEP (10 mM HEPES, 150 mM NaCl, 3 mM EDTA, 0.05% Tween 20, pH 7.4); conditions: both partners purified
# PB_(Cdc24) = target: T2, PB_(Cdc24); assay: as above; conditions: both partners purified
binder,measurement,setting,value
B1,Kd,PB_(Cdc24)(D833G),> 3200 nM
same,Kd,PB_(Cdc24),21 nM

# Source: PMC5015938, “A Split-Ubiquitin Based Strategy Selecting for Protein Complex-Interfering Mutations” (G3: Genes|Genomes|Genetics, 2016)
